Experimental data taken from the DeepSol protein solubility set.

Assay: soluble on expression in E. coli; label from the status in PepcDB or PDB records

Soluble on expression in E. coli, not soluble:
MGSDKIHHHHHHMRFMLYEFLKNNYKEAEPIFFSDIVIEGITKSAVNQQLKKLCDEGKLQKYENGIYYLPKKSRLKTNVGVNADMVARYKYVSRGGKVDGFYSGNTFANQLGISTQVPNKVEIVSNNMAAKIREIPIGKRTFIVRRPVVPVNEENVYVLQLLDLLKNLDMYLDESYDVAHDKVSQFVQIHGITKNDVDSYIREFPIAIFRYYYELRLDDVFA
MGSDKIHHHHHHMRIFDAHCDALLKLWEDPAREYTDDPAIEANAVRLMEGGVRAQCFAIFVGPNIPFDQKFQVALQQAELFHEKILKKHPQFSFIERWDDLLTLDADQIGAILTLEGADPFGDDPTKLKTLYRLGVRSLGLTWNQANLCADGVGEPRGGGLTEWGKAVVSLNNEHHVLTDVSHLSERGFWDVIEYAQFPVATHSNAKAICKHRRNLTDAQLKALIEAGGFIGIVFHPHFLTGTDDASIDDVMKHIEHICSLGGQKHVGFGSDFDGIPCFVDGLEHAGRFQWFMDELLKRYDEELVRGFAWDNFLKATPISYV
MGSDKIHHHHHHMRIFFLDQSGKPGGAELCLIDIAKPYSHSALVGLFADGPFKDLLEQNHIPVEILATQTIQVSKESSLAQGLKSLGQLAPLITKVIKKAREYDLIYANTQKALVVGALASFFSRRPLVYHLHDILSTEHFSQTNLRIAINLANRCASLVIANSQASKTAFIQAGGRSDIVEVVYNGFDLKIYQTDEPGINQLQQKLGLQGKFVVGHFSRLAPWKGQHILIDALAKCPPEVTVILVGDALFGEQDYAQKLHKQVTDLGLENRVKFLGFRSDIPQLMAACDLVAHTSTSPEPFGRVIVEAMLCGKPVVAAKAGGVMELVEHGLNGFLVTPGEPQELAQVIITCLQETEITATIANNARTTASRRFDVATINQQIAQLLSHRF
MGSDKIHHHHHHMRITEFYVSNFRSLSEVNLKDLGGFNIVVGYNGYGKTNLLSSIFLFVKNLSAGIEKRSIEDRNQEFILLWQGYDVSKPIMIGGKVEFSPEESNKIVGKNQKITLEIINKMRYNNKFVEWNLDTLYINGSPPGEDDLKVAKKLAEYASQAIEYVPIFDQTYFDETLKRMTEMNKSPINLRKYWYDFVNLVAATIPEVKGMEFWDGRRLVLNVYNLPIYIDLAASGFQRVILMLFIIWLSGNKILLIEEPEVNMHPTLQAKIMKLIKNWTDNNILQSFLTTHSPYIVEMAADSYVVMRRVNGNSTAITVKPTPDLRGTISLLNASLSNILFSRIIILTSELAEPSVIVNWLKRLNINVEDNGISIYKVSSDLELQHWLKLKNMLNLDVIFLGLCDKLDMSLKDYCVPLSREVENFYSKQALLEVLRRLGIYPDEKEIRDLGKEENLRWIINVLRKRGIEYEKLRMSIGELITDVDSIEIPKEIEILANKIKSLQATL
MGSDKIHHHHHHMRIYDPFRKKWIEEEIETPFPSKGLVATFPFVDLHVHVRLNGGEDYSSLEEASLVGGFFKVVVQPNTKPLIDSKEVLERHLDLSKNRAVEFLFAVSPFGSIEAEGERVVGFSTDGIEYDYPTLVETMKKKKKALWFDHSQMYEVDGIFYEGAPLPFQKRPRSNEAIAIARTVLTGLEYGFERFHIQHVTTKYSVEVISFLKNLAKVSCEVTPHHLFFCYEDIKNTNFKINPPLGSPEDRRALIEAVKKDVIDVLATDHAPHHEKPDDFLTAPYGSTSIEIAFPAYYTALGDLELVVKKLTKKPLEVLGVEARLTEDTLVFIDPEAEFIVDAKKFKSKGKNSMFDGVRLKGKVVALKLKGRWVMIDGEVIADQKEND
MGSDKIHHHHHHMRKDEYRATLLEPNVWHIADYRGDSMYLVVGEEKALLVDTGMGEGDLKGFVRSITEKPVEVVLTHAHWDHIMQANQFEKVYLNHRDFQIIELFKINVNYENFLNVKEGDRFDLGGRTLEVIEVPGHTPGSIVLLDRENRLLFSGDSVGAGHTWMHLPGCLPLREYLKSLKKLKETDSFEKIYHGHLTGTQLKPFGPDYLDDLIKAVEGVIDGSLRGEP
MGSDKIHHHHHHMRKILLPYPAGCATGTFVRRVKRFSVEMTRDGESVWVHSNNSGSMLGLLRPGATMLASPAANPDRKLAWTHEAMRCHGDGPQGFWVGVNTSVPNRMVEAAFHAGRLPWAQGYDTFRRERKRGDSRLDARLDGPGLPTLWVECKNVTMVEDDVACFPDAVTERGSKHLREMMDIVSRGERAAMFYLVQRPDGLCFGPADVIDPQYAALFWEAVDAGVEMYPHRGIVSPVGIDLSGVLPLTRCR
MGSDKIHHHHHHMRKPGDFLESGMTESVNEKADVMKVPVPNLALGMYVAAIDHQGRVNITNPGQIKDRQAIDKLVRNGIEYVWVDVERSAPECGLRPKQEPEKIIRLTRDQSQEKAKRLMSEAKDLVKKVLSETFEGKAVKVEPFEALADKMLESVMLDADAFKCISALRSKDAYLLEHSINVAFLLVTFGRYLKLKRSVLKQLAVGGILHDIGKVRVNNRILHKPGRLTPEEFEHMKLHQVYAQEILAETEDLSQISRDVCLMHHEKLDGKGYPNGLKGEEISLHGRMSCIVDIFDALTATRCYKEAMSPAAAFKILLSLTPFHLDEKLVYEFIRCVGIYPVGSLVQLSDGRIGIVWEAKDRDALHPVLKTFYSVKHKHYTEVTMVDLLKSDLFIERGVSPSSLDVDPTPFY
MGSDKIHHHHHHMRLDLFFDRLLSTEGDKLATVAKNTILEPSVAYFDFTASGLAYRTIEERIASILPRYANTHSEVTNHALFMTELYDEARANLKRHMDLDEEFALFPCGNGSTGAIKKFQELMGLYLPPRTQKRLSLTPDPALFPVVFVGPYEHHSNEVSYRESPCEVVRIPLDSRGLVDMGVLRAKLGEYQGREIITSFSLASNVTGIIIPYEEISALIRKAGGIVTFDMATASSYMNIPSKFFDAAFFSPHKLLGGVGSCGLLAMRKSLIDSTLPPTFAGGGTVTYVSRIDQYYREDPEYREDAGTPGVLQLLRASLAYQLRNEVGLEFIAKRKKELCAPLVEALRKMERVKIYGDIESCNRLGIFAINIEGISPYEVCQRLSREYLIETRAGCSCAGPYGHDLLGLKDDGLFASRPGWVRISVHYSHSLEQIERLLGALEEIARD
MGSDKIHHHHHHMRLFKSLKNPKKTDAKLPKKSSGLNNRAAIGIDIDQHSIKMVQLSGRSLNQIQLEKYVIAKLPKNIIQGNKVQNYDQLVTYLQQAYAKLGTSCKNIVASVPQNLATIEQLTYTAKDAELDLQGFVESSISEASSISLEEANYDYQVLSQSAVGEAVLSVASRKDEIEPLIDAFNAAGMKLSALDVDIFGQYNAYALWINHFAPELADEKVAIFGVYAAQTYALVIQDGKILYKQETSVSEEQLNQLIQRTYQVTAEKAEEIINSPQKPSDYQESVANYFNQQITQEIQRVLQFYYTTQTADDMTDIKHILLTGEAVRQKGIAQTVASQTNADVQCVHPARYFANDLKTDEQQFELDAPTLTKAFGLAVRGL
MGSDKIHHHHHHMRMDHQLAERWIAPYSHVLDLGCGNGELLAHLQQNRGVTGYGLEIDEDKINEAIANGLSIVEQDLNDGLARFADNSFDTVVMARALQAVKSPDVLLLDMLRVAREAVITFPNFAHWQNRIHLGLKGIMPVSEALPYEWYNTPNIHLCTFKDFEKLCAQHDIHIINRFAVSDSEKGHSSLMTALIRRAPNLLADVAIYRVSKQKPE
MGSDKIHHHHHHMRNILIALCLSLTALNSHAADQIERMAADKMQSYKESKINWKDDPILPKGAKSALILGDPSKPGVFIAWLKFPANYPIPAHTHPFTEVITVLKGKLGNGMGEVLDKKKGETLNVGESFVLPAGHAHYVWTGNEETIIELIATGPWDITYSNPKDDPRTK
MGSDKIHHHHHHMRNTAVAEQPASVPAMSRLTRQRLHDTVVEYLRDYIVKGVLAPGVKLNERELCETLGISRTPLREAIKVLAAEGLIEISANRGAAVTKLAESEIDEMFELMSGLEAFAGELACERITPHEIAEIKALHYAMVACREREDLSGYYGYNQQIHDRINGAARNCALRQTYLSINRRLQAMRFKSNFHKSKRDHAVHDHEEMIKALESRDGKRLSAILRQHLLDKRDVVLVTLATARETPATGGR
MGSDKIHHHHHHMRQLLTYDLMESMRVTNQWMGASARALCSYPQLGLAANPFIQLTAAWGEVAERSFARMAAKPDWGISSIPGADGRDHVISIEPVMERAFGDLIRFDVQGREPTGRKILLVAPMSGHYATLLRKTVLSLLPDADVYITDWHNARDIPVSAGKFDIEDYTHYLVDFMREMGPDTNVIAVCQPAPLALAATAYLAEEDPKAQPRTLTLIGGPIDPDAAATDVTDFGRRVTMGHLEKFVVQRVGFKYAGAGRMVYPGIQQLASFMAMNAETHAKAFSDQVVAVSKGEASDHDKHNVFYDEYLAVMDMTAEFYLSTVERIFKNREIAKNTFVVDGKPVDIGKITSVAVKTVEGGKDDISAPGQCVAALDMLTGLPEEKKANYIEPDAGHYGIFAGKSWRNNIRPLVLEFIDANSGIKTPAKRAKPKLVEDPPVENVAV
MGSDKIHHHHHHMRQVLQKDKRDVQLSKALSYLLRHTAVKEKLTIDSNGYTPLKELLSHNRLKTHKCTVDDIHRIVKENDKQRFHIKTLGADEEWICATQGHSIKSIQPSDEVLVPITEASQLPQELIHGTNLQSVIKIIESGAISPMSRNHVHLSPGMLHAKGVISGMRSSSNVYIFIDCHSPLFFQTLKMFRSLNNVYLSSSIPVELIQKVVVKGNLKDEEKLDTLRRILHERNIPLEKI
MGSDKIHHHHHHMRRGELNERRDAIIRLLCAQDELSAQDLAARLNVSVQTIRTDLRELDEAALVQRRHGRVRLRQPSENIGYAPRMSVARSEKQQIAMAVKPMIEDGSRVALGTGTTVEACARQLAASHRDLFVATNNIHAVIALQGASGVSVSLAGGAVRLRDLDFVGAASRAFFADYMVDIAIFSCGGLSLSGDVLDYNTDEIAAREAISTCATRRVLVVDREKFGRALPCRKHMIWDYDVVVTGADFPREIMRKCQEAGCEVLRVATDERPLRA
MGSDKIHHHHHHMRRGGTAFSSKCKICGKAAPFSLPVCPECSKKDAALEIATSLHPPLYEKRVEGCNLCSNKCSGIALCGKPEYGKLTYYEDPLPTNCCNAWFCNGSKLTGTNLAVFYYGCNFDCLYCQNWTHKYFEDVRTVSVDELLRAAKNFRVRCVCHFGGSPEPQLPFALKFSRKALEFKEDLMICWEWNGAGNTSLALKAAELSSRSGGTVKFDLKAWNPNLHVLLTGRDNERVKDNFERIYDKHGEVLSATTLLVPYYVDEEEVEGIARFISSFSTEIPYSLLVFHPDYRMSDFPVTPVQQVKRCYKAAKKHLKNVNIGNLHLLGL
MGSDKIHHHHHHMRRKIPSSTTLMAFEVAARHGSFARAAEELSLTEGAISRQIGRLEAFLGVTLFERVGNRVRLLPNGERYAAQVRESLDRLDRDSQYLMGQPSDGASLDIATIPTFAMRWLIPRLSRFQQKHPNITVHLAERMDPFVLAGSGFDAAIHFEHPAWTGMRTHQLLHEVLVPVCHPELLTGRKRKTALDELPRLHRRQNPEAWLQYSQETGTPLTNPAIGARYDLHGMLIEAALAGLGVALVPRLYVETELALGNLVAPWPEGKTISKTFCLILPEPIGLSREPIQAFAQWLLDEAKKGNSG
